# Data as given in patent US20250136687A1 (SHANDONG SIMCERE BIOPHARMACEUTICAL, published 2025).
# Like-named read-outs stand apart in the source and are kept apart here.
# T1: monkey CD3ε protein (monkey, UniProt Q95LI5 22-117, limits assumed)
# T1 sequence (looked up): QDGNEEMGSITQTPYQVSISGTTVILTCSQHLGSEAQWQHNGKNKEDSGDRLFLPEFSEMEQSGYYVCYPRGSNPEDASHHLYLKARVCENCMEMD
# B1: 1-22.6 human-murine chimeric antibody (antibody, human IgG1, kappa, V domains shown)
# VH: QIPLVQSGPELKKPGETVKISCKTSGYTFTSYGMSWVKQAPGKGLKWMGWINTYSGVPTYADDFKGRFVFSLDTSASTAFLQINNLKNEDTATYFCARLKNNPFCWGQGSTLTVFS
# VL: DVLMTQSPLSLPVRLGDQASISCRSSQLILHSNGNTYLEWYLQKPGQSPKLLIYKVSNRFSGVPDRFSGSGSGTDFTLKISRVEAEDLGVYYCFQGSHFPWTFGGGTKLEIKR
# B2: 8-18.1 human-murine chimeric antibody (antibody, human IgG1, kappa, V domains shown)
# VH: QVQLQQSGAELARPGASVKMSCKASGYIFTMNTMHWVKQRPGQGLEWIGYINPYSGYTKYNQIFKDKATLTADKSSSTAYMRLSSLTSEDSAVYYCLRGGEGVWGQGTTLTVSS
# VL: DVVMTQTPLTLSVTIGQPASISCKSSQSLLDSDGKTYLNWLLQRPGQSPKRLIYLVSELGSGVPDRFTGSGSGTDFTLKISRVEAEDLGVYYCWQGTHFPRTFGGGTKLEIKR
# notes: Human IgG1 chimera
# B3: 7221G20-hIgG1 (antibody, V domains shown)
# VH: EVQLVESGGGLVQPGRSLRLSCAASGFTFDDYSMHWVRQAPGKGLEWVSGISWNSGSIGYADSVKGRFTISRDNAKNSLYLQMNSLRAEDTALYYCAKYGSGYGKFYYYGMDVWGQGTTVTVSS
# VL: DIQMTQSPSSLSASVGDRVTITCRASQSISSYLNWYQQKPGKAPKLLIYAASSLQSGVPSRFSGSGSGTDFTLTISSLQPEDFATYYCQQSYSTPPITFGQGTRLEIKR
# B4: 6-44.5-H1-L2 humanized antibody (antibody, human IgG1, kappa, V domains shown)
# VH: EVQLVQSGAEVKKPGSSVKVSCKASGHTFSSHIMHWVRQAPGQGLEWMGYINPNNDRTEYSEKFKGRVTITADKSTSTAYMELSSLRSEDTAVYYCAGEAYYSNSLYAMDYWGQGTTVTVSS
# VL: DIVMTQSPDSLAVSLGERATINCKSSQSLFNSRTRKNYLAWYQQKPGQSPKLLIYWASTRESGVPDRFSGSGSGTDFTLTISSLQAEDVAVYYCKQSYYLRTFGGGTKVEIKR
# Legend:
# [1] = biological target: T2, human CD3 on the cell surface (Jurkat cells, expanded human T cells, Jurkat-Lucia NFAT cells, human PBMC) (human, UniProt P07766 23-207; P04234 22-171; P09693 23-182); experiment: FACS, expanded human T cells
# T2 construct: whole, on cells; Endogenous CD3 within the TCR-CD3 complex on cells (also zeta chains and TCR); the cell type is named under assay
# T2 sequence (P07766 23-207, chain 1 of 3): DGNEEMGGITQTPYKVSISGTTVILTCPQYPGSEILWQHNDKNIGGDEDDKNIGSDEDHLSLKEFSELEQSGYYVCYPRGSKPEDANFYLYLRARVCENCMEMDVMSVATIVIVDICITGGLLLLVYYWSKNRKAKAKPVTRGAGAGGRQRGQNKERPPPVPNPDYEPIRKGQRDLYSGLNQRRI
# T2 sequence (P04234 22-171, chain 2 of 3): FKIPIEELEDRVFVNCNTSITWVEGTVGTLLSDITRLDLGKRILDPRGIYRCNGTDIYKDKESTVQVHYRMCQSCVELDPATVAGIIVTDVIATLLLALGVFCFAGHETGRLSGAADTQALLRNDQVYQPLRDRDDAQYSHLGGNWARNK
# T2 sequence (P09693 23-182, chain 3 of 3): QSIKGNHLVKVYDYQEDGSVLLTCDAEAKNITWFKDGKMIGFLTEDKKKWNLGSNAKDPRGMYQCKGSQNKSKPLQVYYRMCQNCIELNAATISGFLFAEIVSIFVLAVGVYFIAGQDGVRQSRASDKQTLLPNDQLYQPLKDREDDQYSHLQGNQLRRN
# Description: (§1) The binding of the chimeric antibodies to CD3 on the cell surface was analyzed by detecting the binding of the antibodies to Jurkat cells and human T cells. Suspension cells Jurkat cells were scale-up cultured in T-75 cell culture flasks to the logarithmic growth phase, the supernatant of the medium was discarded by centrifugation, and the cell pellet was washed 2 times with PBS for later use. The expanded human T cells were washed 2 times with PBS for later use. After counting the cells in the previous step, the cell pellet was resuspended with [PBS+2% (w/w) BSA] blocking solution to 4×10⁶ cells/ml, and added to a 96-well FACS reaction plate at 50 μl/well, and then the chimeric antibody to be tested was added at 50 μl/well, and incubated at 4° C. for 1 h. The cells were centrifuged and washed 3 times with a PBS buffer. […] The cells were centrifuged and washed 5 times with PBS, and FACS (FACS Canto™, purchased from BD Company) was used for detection and result analysis. Data analysis was performed by software (CellQuest) to obtain the mean fluorescence […] (MFI) of the cells. And then software (GraphPad Prism8) was used for analysis, data fitting, and EC50 value calculation. The same method was used to simultaneously detect the binding of the chimeric antibodies to endogenous CD3 negative cells MOLT4 cells.
# [2] = biological target: T3, recombinant human CD3ε-ECD His protein (human, UniProt P07766 23-126); experiment: SPR (Biacore), antibody captured on Protein A chip
# T3 construct: extracellular domain; also called human CD3ε-His; CD3ε antigen protein; not shown: His tag
# T3 sequence (P07766 23-126): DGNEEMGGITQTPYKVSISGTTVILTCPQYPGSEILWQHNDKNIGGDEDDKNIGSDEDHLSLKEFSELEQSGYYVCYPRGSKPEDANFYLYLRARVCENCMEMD
# Description: Sample buffer and running buffer were HBS-EP+(10 mM HEPES, 150 mM NaCl, 3 mM EDTA, 0.05% surfactant P20) (GE Healthcare; BR-1006-69). The flow-through cell was set to 25° C. The sample block was set to 16° C. Both were pretreated with the running buffer. In each cycle, the antibody to be detected was first captured with a Protein A chip, and then a single concentration of CD3ε antigen protein (purchased from Sino Biological, Inc. (China), catalog number: 10977-H08H) was injected. The binding and dissociation processes of the antibody and the antigen protein were recorded, and finally a glycine solution (pH 1.5, GE Healthcare; BR-1003-54) was used to complete chip regeneration. The binding was measured by injecting different concentrations of recombinant human CD3ε-ECD His proteins in a solution for 240 s with a flow rate of 30 μL/min. The concentration started from 200 nM (see the detailed results for the actual concentration in the test) and was diluted at 1:1, making a total of 5 concentrations. The dissociation phase was monitored for up to 600 s and was triggered by switching from sample solution to running buffer. The surface was regenerated by washing with a 10 mM glycine solution (pH 1.5) for 30 s at a flow rate of 30 μL/min. Bulk refractive index difference was corrected by subtracting the response obtained from the goat anti-human Fc surface. Blank injection was also subtracted (=double reference). For calculation of apparent KD and other kinetic parameters, Langmuir 1:1 model was used.
# [3] = biological target: T4, cynomolgus monkey CD3 on the surface of expanded monkey T cells (cynomolgus monkey, UniProt Q95LI5 22-198; Q95LI8 22-171; Q95LI7 23-181); experiment: FACS, expanded monkey T cells
# T4 construct: whole, on cells; Endogenous CD3 within the TCR-CD3 complex on T cells expanded from cynomolgus monkey PBMC
# Description: as §1
# (§2) FACS detection and data analysis were performed on the cryopreserved monkey T cells of Example 2.4 according to the method in Example 5.1.
# [4] = biological target: T2, human CD3 on the cell surface (Jurkat …); experiment: FACS, Jurkat cells
# Description: as §1
# [5] = biological target: T2, human CD3 on the cell surface (Jurkat …); experiment: cell-based or functional assay
# [6] = biological target: T2, human CD3 on the cell surface (Jurkat …); experiment: FACS, expanded human T cells; remark: listed apart in the source
# Description: as §1
# [7] = biological target: T4, cynomolgus monkey CD3 on the surface of …; experiment: FACS, expanded monkey T cells, 4 nM antibody
# Description: as §1, §2
# [8] = biological target: T2, human CD3 on the cell surface (Jurkat …); experiment: cell-based or functional assay; remark: listed apart in the source
# [9] = biological target: T3, recombinant human CD3ε-ECD His protein; experiment: ELISA, coated antigen
# Description: (§3) To detect the binding activity of the humanized antibodies to CD3 protein, CD3 protein was diluted with PBS to the final concentration of […], then added to a 96-well ELISA plate at 50 μL/well, and the plate was sealed with a plastic film, and incubated overnight at 4° C. On the next day, the plate was washed 2 times with PBS, and a blocking solution [PBS+2% (v/v) BSA] was added for blocking at room temperature for 2 h. The blocking solution was poured off, and the antibody (initial concentration of 100 nM, and gradient dilution at 1:10) or a negative control antibody was added at 50 µl/well. After incubation at 37° C. for 2 h, the plate was washed 3 times with PBS. […] TMB substrate was added at 50 μl/well, and incubated at room temperature for 10 min, and then a stop solution (1.0 N HCl) was added at 50 μl/well. The OD450 nm values were read by an ELISA microplate reader (Multimode Plate Reader, EnSight, purchased from Perkin Elmer).
# [10] = biological target: T5, human CD3ε/δ-His (human, UniProt P07766 23-126; P04234 22-105); experiment: ELISA, coated antigen
# T5 construct: Bought recombinant heterodimer with His tag; also called human CD3ε/δ protein
# T5 sequence (P07766 23-126, stated change not applied, form in doubt, chain 1 of 2): as the sequence (P07766 23-126) above
# T5 sequence (P04234 22-105, stated change not applied, form in doubt, chain 2 of 2): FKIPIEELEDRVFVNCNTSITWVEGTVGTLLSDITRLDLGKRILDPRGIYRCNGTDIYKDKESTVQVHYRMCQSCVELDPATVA
# Description: as §3
# [11] = biological target: T2, human CD3 on the cell surface (Jurkat …); experiment: FACS, expanded human T cells; remark: listed apart in the source
# Description: as §1
# The expanded human PBMC cells were collected, and FACS detection and data analysis were performed according to the method in Example 5.1.
# [12] = biological target: T3, recombinant human CD3ε-ECD His protein; experiment: ELISA, coated antigen; remark: listed apart in the source
# Description: as §3
# [13] = biological target: T5, human CD3ε/δ-His; experiment: ELISA, coated antigen; remark: listed apart in the source
# Description: as §3
# [14] = biological target: T3, recombinant human CD3ε-ECD His protein; experiment: ELISA, coated antigen; remark: listed apart in the source
# Description: as §3
# [15] = biological target: T5, human CD3ε/δ-His; experiment: ELISA, coated antigen; remark: listed apart in the source
# Description: as §3
# [16] = biological target: T3, recombinant human CD3ε-ECD His protein; experiment: SPR, antibody captured on Protein A chip
# Description: (§4) Running buffer was HBS-EP+(10 mM HEPES, 150 mM NaCl, 3 mM EDTA, 0.05% surfactant P20) (GE Healthcare; BR-1006-69). The flow-through cell was set to 25° C. The sample block was set to 16° C. Both were pretreated with the running buffer. In each cycle, an antibody to be detected was first captured with a Protein A chip, and then a single concentration of CD3ε antigen protein was injected. The binding and dissociation processes of the antibody and the antigen protein were recorded, and finally Glycine pH 1.5 (GE Healthcare; BR-1003-54) was used to complete chip regeneration. The binding was measured by injecting different concentrations of recombinant human CD3ε proteins in a solution for 240 s with a flow rate of 30 μL/min. The concentration started from 200 nM (see the detailed results for the actual concentration in the test) and was diluted at 1:1, making a total of 5 concentrations. The dissociation phase was monitored for up to 600 s and was triggered by switching from sample solution to running buffer. The surface was regenerated by washing with a 10 mM glycine solution (pH 1.5) for 30 s at a flow rate of 30 μL/min. Bulk refractive index difference was corrected by subtracting the response obtained from the goat anti-human Fc surface, and the blank injection was subtracted at the same time (=double reference). For calculation of apparent KD value and other kinetic parameters, Langmuir 1:1 model was used.
# [17] = biological target: T5, human CD3ε/δ-His; experiment: SPR, antibody captured on Protein A chip
# Description: as §4
# [18] = biological target: T1, monkey CD3ε protein; experiment: ELISA, coated antigen
# Description: as §3
# (§5) To detect the binding activity of the humanized antibodies to monkey CD3 protein, CD3 protein was diluted with PBS to the final concentration of […], and then added to a 96-well ELISA plate at 50 μl/well.
# [19] = biological target: T6, monkey CD3ε/δ-His (monkey, UniProt Q95LI5 22-117; Q95LI8 22-105); experiment: ELISA, coated antigen
# T6 construct: Bought recombinant heterodimer with His tag
# T6 sequence (Q95LI8 22-105, stated change not applied, form in doubt, chain 2 of 2, one chain of several): as the sequence (P04234 22-105, stated change not applied, form in doubt, chain 2 of 2) above, with I5V, N15K, I20V, S32T, D33N, I34N, T64A, S74N, V83L counted along it
# Description: as §3, §5
# [20] = biological target: T4, cynomolgus monkey CD3 on the surface of …; experiment: FACS, expanded monkey T cells; remark: listed apart in the source
# Description: as §1
# The expanded monkey T cells were collected, and FACS detection and data analysis were performed according to the method in Example 5.1.
binder,measurement,setting,value
B1,EC50,[1],18.1 nM
same,MFI_Max,[1],15100 MFI
same,Kd,[2],5.51 nM
same,koff,[2],0.000699 s⁻¹
same,kon,[2],127000 M⁻¹ s⁻¹
same,EC50,[3],5.51 nM
same,MFI_Max,[3],43600 MFI
same,EC50,[4],4.28 nM
same,MFI_Max,[4],2080 MFI
same,"EC50 (nM), luciferase reporter, Jurkat-Lucia NFAT cells",[5],11.6 nM
same,Maximum response value (RLU),[5],31700 RLU
B2,EC50,[6],1.58 nM
same,MFI_Max,[6],8980 MFI
same,Kd,[2],0.542 nM
same,koff,[2],0.000241 s⁻¹
same,kon,[2],445000 M⁻¹ s⁻¹
same,MFI at antibody concentration 4 nM,[7],16100 MFI
same,"EC50 (nM), luciferase reporter, Jurkat-Lucia NFAT cells",[8],11.8 nM
same,Maximum response value (RLU),[8],10400 RLU
B3,max-OD450,[9],0.05 OD450
same,EC50,[10],23.4 nM
same,max-OD450,[10],1.31 OD450
same,EC50,[11],4.72 nM
same,max_MFI,[11],20900 MFI
same,max-OD450,[12],0.06 OD450
same,EC50,[13],23.4 nM
same,max-OD450,[13],1.31 OD450
same,binding result,[14],no binding (tested: 100 nM (initial concentration))
same,max-OD450,[14],0.15 OD450
same,EC50,[15],23.4 nM
same,max-OD450,[15],1.31 OD450
B4,Kd,[16],0.669 nM
same,koff,[16],0.000311 s⁻¹
same,kon,[16],466000 M⁻¹ s⁻¹
same,Kd,[17],69 nM
same,koff,[17],0.0339 s⁻¹
same,kon,[17],491000 M⁻¹ s⁻¹
same,EC50,[18],0.00947 pM
same,max-OD450,[18],2.84 OD450
same,EC50,[19],0.000225 nM
same,max-OD450,[19],3.07 OD450
same,EC50,[11],0.43 nM
same,max_MFI,[11],34000 MFI
same,EC50,[20],0.17 nM
same,max_MFI,[20],24800 MFI
same,EC50,[12],0.09 nM
same,max-OD450,[12],2.7 OD450
same,EC50,[13],0.03 nM
same,max-OD450,[13],3.05 OD450
